Measured values published in paper PMC10254243.

Legend:
[1] = target: 5-enolpyruvylshikimate-3-phosphate synthase (EPSPS) from Agrobacterium sp. strain CP4 (CP4-EPSPS) (Agrobacterium sp. strain CP4) (UniProt Q9R4E4); assay: SEC; Enrich SEC 650 column on FPLC, PBS pH 7.2, 25 °C, 0.5 mL/min, calibrated with Gel Filtration Standard; after Ni-NTA affinity chromatography
[2] = target: 5-enolpyruvylshikimate-3-phosphate synthase (EPSPS) from Agrobacterium sp. strain CP4 (CP4-EPSPS) (Agrobacterium sp. strain CP4) (UniProt Q9R4E4); assay: native gel or EMSA; native-PAGE of the purified CP4-EPSPS protein (10 μg)

“5-enolpyruvylshikimate-3-phosphate synthase (EPSPS) from Agrobacterium sp. strain CP4 (CP4-EPSPS) (from UniProt Q9R4E4 1-455) (enzyme)” gave a stoichiometry N [1] of 2 and a stoichiometry N [2] of 2.
